According to patent US20070166308A1 (Amgen, published 2007):

T1: VCAM (Panvera) (UniProt P19320 25-698, limits assumed)
T1 sequence (looked up): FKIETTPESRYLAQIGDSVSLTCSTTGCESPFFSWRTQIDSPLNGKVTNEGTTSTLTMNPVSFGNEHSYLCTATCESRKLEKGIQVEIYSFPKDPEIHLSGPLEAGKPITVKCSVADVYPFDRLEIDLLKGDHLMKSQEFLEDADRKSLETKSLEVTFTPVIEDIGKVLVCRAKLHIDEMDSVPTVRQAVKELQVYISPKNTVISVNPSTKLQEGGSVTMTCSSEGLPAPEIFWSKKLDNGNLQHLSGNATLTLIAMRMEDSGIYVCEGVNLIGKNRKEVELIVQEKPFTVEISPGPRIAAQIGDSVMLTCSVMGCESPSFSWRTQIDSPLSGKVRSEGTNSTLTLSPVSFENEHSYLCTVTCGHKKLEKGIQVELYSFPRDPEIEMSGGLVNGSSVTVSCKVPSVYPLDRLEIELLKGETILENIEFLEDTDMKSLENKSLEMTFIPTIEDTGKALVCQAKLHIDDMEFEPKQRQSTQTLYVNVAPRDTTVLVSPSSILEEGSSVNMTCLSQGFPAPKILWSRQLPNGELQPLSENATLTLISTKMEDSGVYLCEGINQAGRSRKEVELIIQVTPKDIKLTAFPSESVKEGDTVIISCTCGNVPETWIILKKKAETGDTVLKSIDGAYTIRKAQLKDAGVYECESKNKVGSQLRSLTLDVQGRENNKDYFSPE


Experiments:
[1] = biological target: T2, MAdCAM-IgG1 Fc fusion protein (human); assay: adhesion of calcein-loaded α4β7+ JY cells to coated MAdCAM-IgG1 Fc, blocked by antibody
T2 construct: Expressed in CHO-DHFR cells; also called MAdCAM-IgFc; soluble MAdCAM (in the sandwich ELISA)
Protocol: (§1) The cells were washed twice with RPMI 1640 media (Gibco) containing 2 mM L-glutamine (Gibco) by centrifugation (240 g), resuspending the final cell pellet at 2×10⁶ cells/mL in RPMI 1640 for Calcein AM loading. Calcein AM (Molecular Probes #C-3099) was added to the cells as a 1:200 dilution in DMSO (ca. final concentration 5 μM) and the cells protected from light during the course of the incubation (37° C. for 30 min). During this cell incubation step the antibodies to be tested, were diluted as follows: for single dose testing, the antibodies were made up to 3 μg/mL (1 μg/mL final) in 0.1 mg/mL BSA (Sigma#A3059) in PBS; for full IC₅₀ curves, the antibodies were diluted in 0.1 mg/mL BSA/PBS, with 3 μg/mL (1 μg/mL final) being the top concentration, then doubling dilutions (1:2 ratio) across the plate. The final well of the row was used for determining total binding, so 0.1 mg/ml BSA in PBS was used.
After blocking, the plate contents were flicked out and 50 μL of antibodies/controls were added to each well and the plate incubated at 37° C. for 20 min. During this time, Calcein-loaded JY cells were washed once with RPMI 1640 media containing 10% fetal bovine serum and once with 1 mg/mL BSA/PBS by centrifugation, resuspending the final cell pellet to 1×10⁶/mL in 1 mg/mL BSA/PBS. 100 μL of cells were added to each well of the U bottomed plate, the plate sealed, briefly centrifuged (1000 rpm for 2 min) and the plate then incubated at 37° C. for 45 min. At the end of this time, the plates were washed with a Skatron plate washer and fluorescence measured using a Wallac Victor² 1420 Multilabel Reader (excitation λ 485 nm, emission λ 535 nm count from top, 8 mm from bottom of plate, for 0.1 sec with normal emission aperture). For each antibody concentration, percent adhesion was expressed as a percentage of maximal fluorescence response in the absence of any antibody minus fluorescence associated with non-specific binding. […]

[2] = biological target: Fibronectin cell binding fragment (110 Kd, Europa Bioproducts Ltd, Cat. No. UBF4215-18) (UniProt P02751-1 722-1635); assay: cell-based or functional assay
VCAM (Panvera) = biological target: T1, VCAM (Panvera); assay: cell-based or functional assay
[3] = biological target: T2, MAdCAM-IgG1 Fc fusion protein; assay: MAdCAM-IgG1 Fc fusion / JY cell adhesion assay, mean IC50
Protocol: as §1
After blocking, the plate contents were flicked out and 50 μL of antibodies/controls were added to each well and the plate incubated at 37° C. for 20 min. During this time, Calcein-loaded JY cells were washed once with RPMI 1640 media containing 10% fetal bovine serum and once with 1 mg/mL BSA/PBS by centrifugation, resuspending the final cell pellet to 1×10⁶/mL in 1 mg/mL BSA/PBS. 100 μL of cells were added to each well of the U bottomed plate, the plate sealed, briefly centrifuged (1000 rpm for 2 min) and the plate then incubated at 37° C. for 45 min. At the end of this time, the plates were washed with a Skatron plate washer and fluorescence measured using a Wallac Victor² 1420 Multilabel Reader (excitation λ 485 nm, emission λ 535 nm count from top, 8 mm from bottom of plate, for 0.1 sec with normal emission aperture). For each antibody concentration, percent adhesion was expressed as a percentage of maximal fluorescence response in the absence of any antibody minus fluorescence associated with non-specific binding. The IC₅₀ value is defined as the anti-MAdCAM antibody concentration at which the adhesion response is decreased to 50% of the response in the absence of anti-MAdCAM antibody.

T2 sequence (chain, as listed by the source limits assumed): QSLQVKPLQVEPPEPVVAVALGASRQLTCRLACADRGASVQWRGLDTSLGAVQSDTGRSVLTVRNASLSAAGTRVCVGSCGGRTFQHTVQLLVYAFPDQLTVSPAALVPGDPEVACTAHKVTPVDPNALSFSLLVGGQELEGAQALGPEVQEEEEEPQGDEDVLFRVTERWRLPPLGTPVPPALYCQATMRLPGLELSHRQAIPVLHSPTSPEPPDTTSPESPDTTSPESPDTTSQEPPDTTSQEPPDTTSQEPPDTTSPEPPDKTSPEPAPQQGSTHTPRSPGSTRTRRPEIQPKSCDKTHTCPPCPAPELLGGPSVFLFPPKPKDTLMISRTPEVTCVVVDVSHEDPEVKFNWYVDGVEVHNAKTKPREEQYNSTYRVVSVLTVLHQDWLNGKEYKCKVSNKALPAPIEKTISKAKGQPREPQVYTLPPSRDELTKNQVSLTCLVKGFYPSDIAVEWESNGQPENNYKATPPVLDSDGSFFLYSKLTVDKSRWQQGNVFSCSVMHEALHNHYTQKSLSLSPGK
Chain of Fibronectin cell binding fragment (110 Kd, Europa Bioproducts Ltd, Cat. No. UBF4215-18) (P02751 other isoform, or with tags, fused parts or gaps limits assumed): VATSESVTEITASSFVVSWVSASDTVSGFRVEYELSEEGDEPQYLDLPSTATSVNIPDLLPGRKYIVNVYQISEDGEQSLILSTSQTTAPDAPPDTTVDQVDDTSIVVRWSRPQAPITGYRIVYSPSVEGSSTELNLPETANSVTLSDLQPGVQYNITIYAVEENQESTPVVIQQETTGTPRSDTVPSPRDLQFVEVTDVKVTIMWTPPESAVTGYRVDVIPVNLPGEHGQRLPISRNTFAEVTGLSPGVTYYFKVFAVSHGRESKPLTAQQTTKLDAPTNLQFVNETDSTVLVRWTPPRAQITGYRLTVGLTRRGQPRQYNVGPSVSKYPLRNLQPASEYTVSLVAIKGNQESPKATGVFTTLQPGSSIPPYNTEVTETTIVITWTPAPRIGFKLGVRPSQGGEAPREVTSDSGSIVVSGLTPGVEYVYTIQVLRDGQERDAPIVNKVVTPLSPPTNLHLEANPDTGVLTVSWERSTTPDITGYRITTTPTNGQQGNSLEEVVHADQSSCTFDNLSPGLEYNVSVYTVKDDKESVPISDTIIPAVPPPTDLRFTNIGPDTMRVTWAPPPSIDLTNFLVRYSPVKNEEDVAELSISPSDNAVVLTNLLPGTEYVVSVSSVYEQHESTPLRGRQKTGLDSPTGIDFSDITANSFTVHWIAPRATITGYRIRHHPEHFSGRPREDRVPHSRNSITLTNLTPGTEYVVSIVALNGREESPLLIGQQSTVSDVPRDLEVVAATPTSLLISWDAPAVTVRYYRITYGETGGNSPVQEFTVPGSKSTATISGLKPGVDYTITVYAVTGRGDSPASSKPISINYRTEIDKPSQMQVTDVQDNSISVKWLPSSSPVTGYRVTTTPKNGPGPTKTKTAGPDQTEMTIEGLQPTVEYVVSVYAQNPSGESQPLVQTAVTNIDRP

| IC50 [1] | inhibition of adhesion of α4β1+/α5β1+ Jurkat T-cells to coated Fibronectin cell binding fragment [2] | inhibition of adhesion of α4β1+/α5β1+ Jurkat T-cells to coated VCAM (VCAM (Panvera)) | IC50 [3] | Binder |
| --- | --- | --- | --- | --- |
| < 0.1 µg/mL | > 100 fold | > 100 fold |  | anti-MAdCAM monoclonal antibody 9.8.2 (antibody, human IgG4, kappa, V domains shown, fully human IgG4 kappa from hybridoma; signal peptide left out; kappa chain stained positive for glycosylation) VH: QVQLVESGGGVVQPGRSLRLSCAASGFTFSSYGMHWVRQAPGKGLEWVAVIWYDGSNEYYADSVKGRFTISRDNSKNTLYLQMNSLRAEDTAVYYCARGAYHFAYWGQGTLVTVSS VL: DIQMTQSPSSLSASVGDRVTITCQASQDISNYLNWYQQKPGKAPKLLIYDASNLETGVPSRFSGSGSGTDFTFTISSLQPEDIATYSCQHSDNLSITFGQGTRLEIKR |
| < 0.1 µg/mL | > 100 fold | > 100 fold | 0.021 µg/mL | anti-MAdCAM monoclonal antibody 7.26.4 (antibody, human IgG2, kappa, V domains shown, fully human IgG2 kappa from hybridoma; signal peptide left out; kappa chain glycosylation confirmed) VH: QVQLVQSGAEVKKPGASVKVSCEASGYTFTSYGIDWVRQAPGQGLEWMGWISVYSGNTNYAQKLQGRVTMSTDTSTSTAYMELRSLRSDDTAVYYCAREGSSSSGDYYYGMDVWGQGTTVTVSS VL: DIVMTQTPLSLSVTPGQPASISCKSNQSLLYSDGKTYLFWYLQKPGQPPQLLIYEVSNRFSGVPDRFSGSGSGTDFTLKISRVEAEDVGVYYCMQSIQLPWTFGQGTKVEIKR |
